This note sets out measurements from the nanobody polyreactivity screen of Harvey et al. (2022).

The nature of the data set: yeast display, Sf9 membrane polyspecificity reagent, FACS + sequencing; frameworks hold sequencing errors. A digest of the protocol: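 Genes from sorted yeast were amplified by colony PCR, read by MiSeq 2 × 250 sequencing and filtered on CDR length. These cells carried a synthetic nanobody library in Saccharomyces cerevisiae BJ5465 and were sorted by FACS into low and high (top ~1%) gates on anti-HA and streptavidin fluorescence. Polyreactivity is labelled according to the gate of origin.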
“QVQLVESGGGLVQAGGSLRLSCAASGITFVWNAMGWYRQAPGKERELVATISRGGVRTYYADSVKGRFTISRDNAKNTVYLQMNSLKPEDTAVYYCAADGSYVHWEYGYWGQGTQGTVSS”: the “polyreactivity (PSR sort gate)” value is “low polyreactivity”.
Turning to “QVQLVESGGGLVQAGGSLRLSCAASGSINCSNAMGLYRKAPRKERDLVAAITESGGDTYYADSVKGRFTISRDNAKNTVYLLINSMKPEDTAVYYCAARYFGVIVDVSLFSEYGSWGQGTQVTVSS”, the “polyreactivity (PSR sort gate)” value is given as “low polyreactivity”.
Consider “QVQLVESGGGLVQAGGSLRLSCAASGRTFKLYAMGWYRQAPGKERELVATIRRSGTRTYADSVKGRFTISRDNAKNTVYLQMNSLKPEDTAVYYCAATTYGYVYHRYDYWGQGTQVTVSS”, for which the “polyreactivity (PSR sort gate)” value is “high polyreactivity”.
As for “QVQLVESGGGLVQAGGSLRLSCAASGSILADYAMGWYRQAPGKERELVAGISSGGSTNYADSVKGRFTISRDNAKNTVYLQMNSLKPEDTAVYYCNADQDFLFIGYLFDYWGQGTQVTVSS”, the “polyreactivity (PSR sort gate)” value is listed as “low polyreactivity”.
In the case of “QVQLVESGGGLVQAGGSLRLSCAASGSIFRNNTMGWYRQAPGKERELVAAISGRGTRTSYADSVKGRFTISRDNAKNTVYLQMNSLKPEDTAVYYCAAVYYWRPGWYVRFDYWGQGTQVTVSS” it was “low polyreactivity”; in that of “QVQLVESGGGLVQAGGSLRLTCAASGSIYVGNAMGWNRHAPGKEREFVAAISRSGGRTYYADSVKGRFTISRDNEKNTVYLQMNSLKPEDTAVYYCNAYGWEQRQMDSWGQGTQVTVSS”, “high polyreactivity”.
In the case of “QVQLVESGGGLVQAGGSLRLSCAASGSTFNSYAMGWYRQAPGKERELVAAISRSGGRTYYADSVKGRFTISRDNAKNNVYLQMSSMKPEDTAVYYCAAVHNANRGYPFEYWGQGTQVTVSS” it was “high polyreactivity”; in that of “QVQLEVSGGGLVQAGGSIRLSCAASGSTFGGNAMGWYRQAPRKERELVAAIDSGGSTYADSVKGRFTISRDNAKNTVYLQMNSLKPEDTAVYYCADWFSAYYSLYRHRGYWGQGTQVTVSS”, “low polyreactivity”.
Consider “QVQLVESVGCLVQPGGSLRLSCATSGSIFLLYARGWYRQPPGKERELVAAITSSGGSTNYADSVKGRITISRDTAKNTVYLQMNSLKPEDTEVYYSATAPYAYTILGSRFDYWGKGTQVTVSS”, for which the “polyreactivity (PSR sort gate)” value was “low polyreactivity”.
In the case of “QVQLVESGGGLVQAGGSLRLSCAASGSTFYVYAMGWYRQAPGKERELVAAIRGGGSTNYADSVKGRFTISRDNAKNTVYLQMNSLKPEDTAVYYCAKLPYTRTYLGSLYDYWGQGTQVTVSS” it was “high polyreactivity”; in that of “QVQLVESGRGLVQAGGSLRLRCAASGFTIYPYVMGWYRQAPGKERELVAAISWSGGRTSYADSVKGRFTISRDNAKNTVYLQMNSLKPEDTAVYYCATRPSHVLSEMDYWGQGTQVTVSS”, “low polyreactivity”; in that of “QVQLVESGGGLVQAGGSLRLSCAASGSIFEENAMGWYRQAPGKERELVAAINTRGGSTYYADSVKGRFTLSRDNAKNTVYLQMNSLKPEDTAVYYCALISRYYYWGQGTQVTVSS”, “high polyreactivity”.
Turning to “QVQLVESGVGLVQAGGSLRLSCAASGRTFYVYAMGWYRQAPGKERELVAAISLGGGSTYYADSVKGRFTNSRDNGKNTVYLQMNSLKPEDTAVYYCAADITRYRLGRDYWGQATQVTVSS”, the “polyreactivity (PSR sort gate)” value is reported as “low polyreactivity”.
In the case of “QVQLVESGGGLVQAGGSLRLSCAASGSTFFLKAMGWYRQSPGKERELVAAISYSDSGTNYADSVKGRFTISRDNAKNTVYLQMNSLKPEDTAVYYCATAVRPWYVTSGNYWGQGTQVTVSS” it was “low polyreactivity”; in that of “QVQLVESGGGLVQAGGSLRLSCAASGRTLYRNAMGWYRQAPGKERELVAAIKMRGGSTYADSVKGRFTISRDNAKNTVYLQMNSLKPEDTAVYYCAAASRSPYYYWGQGTQVTVSS”, “high polyreactivity”.
Take “QVQLVESGGGLVQAGGSLRLSCAASGFTFYSNAMGWYRQAPGKERELVAAISYSGGSTYYADSVKGRFTISRDNAKNTVYLQMNSLKPEDTAVYYCAAGGLQQGDYWGQGTQVTVSS”: the “polyreactivity (PSR sort gate)” value is recorded as “low polyreactivity”.
Regarding “QVQLVESGGGLVQAGVSLLLSCAASGSTFGYNAMVCYRQAPGKERELVAAITSSGSTTYYADSVKGRFTISRDNAKNSVYLQLNSLKREDTAVYYCNAPAYYLHYGLYARYDYWGQGTQVTVSS”, the “polyreactivity (PSR sort gate)” value was “low polyreactivity”.
In the case of “QVQLVESGGGLVQAGGSLRLSCAASGRIFYQYVMGWYRQAPGKDRELVAAISRRGGSTYYADSVKGRFTISRDNAKNTVYLQMNSLKPEDTAVYYCAARRRYRRHRYDYWGQGTQVTVSS” it was “high polyreactivity”; in that of “QVQLVESGGGLVQAGGSLRLSCAASGRILGRYAMGWYRQAPGKERELVAAITARTGSTYYADSVKGRFTISRDNAKNTVYLQMNSLKPEDTAVYYCAAERGWWRNDFDYWGQGTQVTVSS”, “high polyreactivity”; in that of “QVQLVESGGGLVQAGGSLRLSCAASGSTLYGNVMGWFRQAPGKERELVATINRGGSTNYADSVKGRFTISRDNAKNTVYLQMNSLKPEDTAVYYCAVYHYSSYEYLGQGTQVTVSS”, “low polyreactivity”.
In the case of “QVQLVESAGGLVQAGGSLRLSCAASGSTFAIKAMGWYRQAPGKERELVAAISSSGSTNYADSVKGRFTISRDNAKNTVYLQMNSLKQEDTAVYYCAADRVWGTPQAYVPSHFDYWGQGTQVTVSS” it was “low polyreactivity”.
In the case of “QVQLVESGGGLVQAGGSLRLSCAASGIIFIFYDMGWYRQAPGKERELVATITSGTNTDADSVKGRFTISRDNAKNTVYLQMNSLKPEDTAVYYCAAGFSPASQLDYWGQGTQVTVSS” it was “low polyreactivity”; in that of “QEQLQESGSGLVQAGVSLRLSSAASGNIVQDWVMGWYRQAPGKERELVAAISPGAITYYADSVKGRFTISSDNAKNTVYLQTNRLNPEDTAVYYCAAYYIVEFLHGYWGQGTRVTVSS”, “low polyreactivity”; in that of “QVQLVESGGGLVQAGGSLRLSGAASGRIFQRYVMGWYRQAPGKERELVAAISYSGARTYYADSVKGRFTISRDNAKNTVYLQMNSLKPEDTAVYYCAARIRNWPAMDYWGQGTQETVSS”, “high polyreactivity”.
Regarding “QVQLVESGGGLVQAGGSLRLSCAASGSIFQPYAMGWYRQAPGKEREFVAAISRSGGITYYADSVKGRFTISRDNAKNTVYLQMNSLKPEDTAVYYCATGRQVVRSYSEGDYWGQGTQVTVSS”, the “polyreactivity (PSR sort gate)” value is listed as “low polyreactivity”.
“QVQLVESGGGLVQAGGSLRLSCAASGSTFPYYAMGWYRQAPGKERELVAAITSSASTYYADSVKGRFTISRDNAKNTVYLQLNSPKPEDTADYYCPVRSPYRLSPWRVGYWGQGTQVTVSS”: the “polyreactivity (PSR sort gate)” value is “high polyreactivity”.
On to “QVQLVESGGGLVQAGGSLRLSCAASGRIFYRNVMGWYRQAPGKERELVAAISYRGGSTSYADSVKGRFTISRDNAKNTVYLQMYSLKPEDTAVYYCNAGRIRPAYSDREYWGQGTQVTVSS”, for which the “polyreactivity (PSR sort gate)” value was “low polyreactivity”.
In the case of “QVQLVESGGGLVQAGGSLRLSCAASGFTFGGYAMGWYRQAPGKERELVAAINSIGGTTYYADSVKGRFTISRDNAKNTVYLQMNRLKPEDTAVYYCAAGFYGYARHTWYNYWGQGTQVTVSS” it was “high polyreactivity”; in that of “QVQLVESWGGLVQAGGSLRLSCAASGRTFIRYTMGWYRQAPGKERELVASIRYSGASTSYADSVKGRFTISRDNAKNTVYLQMNSLKPEDTAVYYCAADRYWWWYNSPYSGMDYWGQGTQVTVSS”, “high polyreactivity”; in that of “QVQLVESGGGLVQAGGSLRLSCAASGSIFKTNAMGWYRQAPGKERELVAAIRASGGSTYYADSVKGRFTISRDNAKNTVYLQMNSLKPEDTAVYYCAARYWFKYYWGQGTQVTVSS”, “high polyreactivity”.
As to “QVQVVESGGGLDQAGGSLRLSCAASGRIFFYYGMGWYRQAPGTERELVASISRGGSTTYADSVKGRFTISRDNAMKTVYLQMNSLKPEDSAVYYCARRYTQIYSSNYGYWGQGTEVTVSS”, the “polyreactivity (PSR sort gate)” value is recorded as “high polyreactivity”.
In the case of “QVQLVESGGGLVQAGGSLRLSCAASGSIFGIYTMGWYRQAPGKERELVAAIRRSGSTNYADSVKGRFTISRDNAKNTVYLQMNSLKPEDTAVYYCAADALSDEYDYWGQGTQVTVSS” it was “low polyreactivity”; in that of “QVQIVESAAGIVQAGGSLRLSCAASGSIFLLYAIGWYRQAPGKEMEFVAAITRGGGSTYYADSVKGRFTISRDNEKNIDYLQINSLIPEDTAVYYWYKGFQYHNGSLVVAYDYWGQGTQVTVSS”, “low polyreactivity”; in that of “QVQLVESGGGLVQAGGSLRLSCAASGRIFRINAMGWYRQAPGKERELVASISRRGGNTYYADSVKGRFTISRDNAKNTVYLQMNSLKPEDTAVYYCAADTYQERTFDYWGQGTQVTVSS”, “low polyreactivity”.
In the case of “HVQLGESGGGLVQAGGSLRLSCAASGFIFQRYAMGWDRQAPGKERELVAAITTSGGRTYYADSVKGRFTMSRDNAKKTVYLQMNSLKPEDTAVYYCAAEGSHNSEYWGQGTQVTVSS”, the “polyreactivity (PSR sort gate)” value is reported as “high polyreactivity”.
On to “QVQLVESGGGLVQAGGSLRLSCAASGSIFITYVMGWSRQAPGKERELVAGISRSGGSTYYADSVKGRFTISRYNAKNTVYLQMNSLKPEDTAVYYCAAFFLRRPGSSGLRLLGQGTQVTVSS”, for which the “polyreactivity (PSR sort gate)” value is reported as “high polyreactivity”.
Regarding “QFQLVESGGGLVQAGGSLRISCDASGRTFWYYTMGWYRKAPGKERELVASITYRGGSTYYADSVKGRFTISRDNAKNTVYLQMNSLKPEDTAVYYCNKPYFTASGDRFGYWGQGTQVTVSS”, the “polyreactivity (PSR sort gate)” value is listed as “low polyreactivity”.
In the case of “QVQLVESGGGLVQAGGSLRLSCAASGRIFNAYATGWYRKAPGKERELVAAISSIGGRTYYADSVKGRFTISRDNAKNTVYLQMNSLKPEETAVYYCAARRRSRQYRYDYWGQGTQVTVSS”, the “polyreactivity (PSR sort gate)” value is “high polyreactivity”.
For “QVQLVESGGGLVQAGGSLRLSCAASGRTFRQYAMGWYRQAPGKERELVATISSGGSTYYADSVKGRFTISRDNAKNTVYLLMNSLKPEDTAVYYCAAPYWARKYWRKFGPFDYWGQGTQVTVSS”, the “polyreactivity (PSR sort gate)” value is listed as “low polyreactivity”.
For the sequence “QVQLVESGGGLVQAGGGLRLSCAASGSYYKYYAMGWYRQAPGKEREFVAAITRSGGSTYYADSVKGRFTISRDNAKNTDYLQMNSLKPEDTAVYYCATDLRTRNYDYWGQGTQVTVSS”, the “polyreactivity (PSR sort gate)” value is given as “high polyreactivity”.
“QVQLVESGGGLVQAGGSLRLSCAASGFISPNAMGWYRQAPGKERELVAAISRSGGSTYYADSVKGRFTISRDNAKNTVYLQMNSLKTEDTAVYYCAAGRLYSYRRQYGYWGQGTQVTVSS”: the “polyreactivity (PSR sort gate)” value is on record as “high polyreactivity”.
